From paper PMC4338369

Target: alkyl hydroperoxide reductase subunit C (peroxiredoxin) from Amphibacillus xylanus (Amphibacillus xylanus) (UniProt K0J4Q8)
Test: SPR

kon: 29 M⁻¹ s⁻¹
Substance: NADH oxidase from Amphibacillus xylanus (enzyme)
